The source of these data is PMC12289918 (Nature Communications, 2025).

The target in this assay is T1, K11-HTS-Tail (KLP-11 residues 537-782) (Caenorhabditis elegans, UniProt Q19633 537-782).
T1 sequence (looked up): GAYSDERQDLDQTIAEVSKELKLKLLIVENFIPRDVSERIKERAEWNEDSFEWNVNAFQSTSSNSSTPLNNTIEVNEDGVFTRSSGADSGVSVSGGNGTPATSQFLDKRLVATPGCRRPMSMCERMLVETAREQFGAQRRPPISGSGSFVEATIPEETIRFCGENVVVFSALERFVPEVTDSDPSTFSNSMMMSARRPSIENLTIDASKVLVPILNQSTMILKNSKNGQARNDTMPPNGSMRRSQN
Nature of the assay: SEC-MALS. A general note: Size exclusion chromatography separates by hydrodynamic size, large species first.

B1: K20-HTS-Tail (KLP-20 residues 527-646) (domain or fragment, Caenorhabditis elegans, UniProt Q965T6 527-646, looked up)
chain: EDHQRQVEAMLDDIRQLRKELLLNIAIIDEYIPVEHVELIEKYVSWSEEHGDWQLKAIAYTGNNMRASAPPAKKEFSNNNQTVPMYYSYRADLGASTAEHRPRTSSKKHRASIRLQQLLT
In the case of B1, the “stoichiometry N” value is 1.

One may read the stoichiometry N as a count of units in the complex or per binding partner.
